Assay results: patent US9120851B2, “Human antibodies to human angiopoietin-like protein 4” (Regeneron Pharmaceuticals, Inc., priority 2009, dated 2015)

Experiments:
[1] = test system: humanized ANGPTL4×ApoE null mice; assay: Serum TG levels in humanized ANGPTL4 x ApoE null mice; format: in vivo, mouse
Experimental: The effect of H4H268P2 on circulating TG levels was further studied in humanized ANGPTL4 mice crossed to ApoE null mice. The ApoE null mouse model is known as a highly atherogenic and hyperlipidemic model with the majority of cholesterol and TG circulating in VLDL particles due to impaired VLDL remnant clearance. Humanized ANGPTL4×ApoE null mice were pre-bled 7 days before the experiment and put into 2 groups of six mice each. Antibodies H4H268P2 and Control Ab were administered at 10 mg/kg by subcutaneous injection. Mice were bled after 4 hours of fasting on days 1, 4, 7, 11 and 17 after antibody injection and TG levels were determined in the serum by ADVIA® 1800 Chemistry System (Siemens). TG reductions shown in FIG. 4 are expressed as a percent of TG levels compared to Control Ab.

[2] = test system: obese rhesus monkeys (Macaca mulatta); assay: Phase I pilot PK/PD study in obese rhesus monkeys; format: in vivo, rhesus monkey (Macaca mulatta)
Experimental: Phase I: In a pilot non-GLP pharmacokinetics/pharmacodynamic (PK/PD) study, H4H268P2 and H4H284P were administered as a single bolus intravenous (IV) injection, to obese rhesus monkeys (Macaca mulatta). Rhesus monkeys were selected because this species is closely related, both phylogenically and physiologically, to humans and is a species commonly used for nonclinical toxicity evaluations. Obese monkeys that had been on a high fat diet for greater than 6 months were selected because they typically display moderately elevated TG levels (i.e., mean >100 mg/dL; hyper-TG). Eight confirmed healthy, male monkeys were acclimated and assigned to the study for baseline assessment for 7 days prior to dosing. All animals received a vehicle (10 mM histidine, pH 6) IV infusion on Day −5, after which four of them received H4H268P2 and another four H4H284P at 10 mg/kg IV on day 0.
Serum samples were collected from the baseline period through day 35 post-dosing and assessed for serum lipid levels by ADVIA® 1800 Chemistry System (Siemens). The average baseline for each animal was determined based on the samples taken on Days −7, −5 and 0. […] Thus the data analysis was done with 3 animals in each group. Percent (%) changes of serum TG levels from the baseline were determined for each animal and averaged for each Ab group.

[3] = test system: obese rhesus monkeys (Macaca mulatta); assay: Phase II pilot PK/PD study in obese rhesus monkeys; format: in vivo, rhesus monkey (Macaca mulatta); conditions: 10 mg/kg IV
Experimental: Phase II: In the second non-GLP pharmacokinetics/pharmacodynamic (PK/PD) study only H4H268P2 was administered as a single bolus intravenous (IV) injection to eight obese rhesus monkeys (Macaca mulatta). The step of pre-dosing vehicle injection was omitted in this study. Three baseline assessments were taken at days −7, −3 and 0 of the study and all eight monkeys received H4H268P2 at 10 mg/kg by IV on day 0. Serum samples were collected from the baseline period through day 35 post-dosing and assessed for serum lipid levels by ADVIA® 1800 Chemistry System (Siemens). Animals were grouped for data analysis according to average baseline TG levels so as to prospectively predict the effect: A. TG<150 mg/dL (n=3); B. 150 mg/dL<TG<500 mg/dL (n=4); and C. TG>1000 mg/dL (n=1).

[4] = animals with baseline 150 mg/dL<TG<500 mg/dL

B1: H4H268P2: IgG4 version of H1H268P with a single amino acid substitution in framework region 1, HCVR/LCVR SEQ ID NOs 487/44 (antibody, V domains shown)
VH: QVQLQQSGAGLLKPSETLSLTCTVYGGSFSIHHWTWIRHPPGKGLEWIGEINHRGSTNYNPSLKSRVTISIDTSKNQFSLKLSAVTAADTAVYYCARGLRFLDWLSSYFDYWGQGTLVTVSS
VL: DIQMTQSPSSLSASVGDRVTITCRASQGISDYLAWYQQKPGKVPNLLIYAASALQSGVPSRFSGSGSGTDFTLTISSLQPEDVATYYCQNYNTAPLTFGGGTKVEIK
modifications: IgG4 constant region
- TG reduction compared to Control Ab ([1]; all 17 days, 10 mg/kg s.c.): more than 42%
- greatest TG reduction compared to Control Ab ([1]; day 7, 10 mg/kg s.c.): ~50%
- additional lipids, such as LDL-C and HDL-C, in words ([2]; 10 mg/kg IV): Moderate effects
- total-C, in words ([2]; 10 mg/kg IV): unchanged
- injection site reactions or other adverse effects ([2]; 10 mg/kg IV, any time point after infusion): No injection site reactions or other adverse effects were observed
- maximal reduction of serum TG from baseline ([2]; day 4 post-dosing, 10 mg/kg IV, three mildly hyper-TG animals): 57%
- fasting TG's or any other lipid parameters, in words ([2]; single obese animal with low TG levels, 10 mg/kg IV): did not yield any significant effect
- mean serum TG levels ([2]; until approximately Day 25, 10 mg/kg IV, three mildly hyper-TG animals): ≤ 100 mg/dL
- HDL-C, in words [3, 4]: increased
- LDL-C or Total-C, in words [3, 4]: no effect
- decrease in TG levels from baseline [3, 4]: 50-68%
- response of fasting TG, in words ([3]; animals with baseline TG<150 mg/dL (normal TG levels)): largely unresponsive
- TG level, in words ([3]; individual animal with baseline TG >1000 mg/dL): dramatic and rapid drop in TG level
